According to publication PMC2824085:

Tests used:
[1] = molecular target: trimeric extracellular domain (ECD) of rat macrophage galactose lectin (MGL) (rat) (UniProt P49301); assay: radioligand binding; competition: CRD or ECD of MGL coated on polystyrene wells, 125I-labeled Gal-BSA as reporter ligand, competing ligand titrated; KI = concentration for 50% inhibition
[2] = molecular target: monomeric carbohydrate-recognition domain (CRD) of rat macrophage galactose lectin (MGL) (rat) (UniProt P49301); assay: as above
[3] = molecular target: monomeric carbohydrate-recognition domain (CRD) from DC-SIGN (UniProt Q9NNX6); assay: radioligand binding; competition: CRD of DC-SIGN immobilised on polystyrene wells, 125I-labeled mannose-BSA as reporter ligand, competing ligand titrated; KI = concentration for 50% inhibition
[4] = molecular target: monomeric carbohydrate-recognition domain (CRD) from DC-SIGN (UniProt Q9NNX6); assay: SPR; BiaCore 3000, CM5 chip; CRD of DC-SIGN immobilised, glycopeptide from SBA in the fluid phase; steady state; 10 mM Hepes, 150 mM NaCl, 5 mM CaCl2, 0.005% P20, pH 7.4, 25 °C
[5] = molecular target: Man9GlcNAc2 glycopeptide isolated from soybean agglutinin (soybean); assay: SPR; BiaCore 3000, CM5 chip; SBA or its glycopeptide amine-coupled, monomeric CRD of DC-SIGN flowed over; steady state, simple saturation model with linear background; 10 mM Hepes, 150 mM NaCl, 5 mM CaCl2, 0.005% P20, pH 7.4, 25 °C

trimeric extracellular domain (ECD) of rat macrophage galactose lectin (MGL) (rat), sequence (P49301 59-306, tags left off): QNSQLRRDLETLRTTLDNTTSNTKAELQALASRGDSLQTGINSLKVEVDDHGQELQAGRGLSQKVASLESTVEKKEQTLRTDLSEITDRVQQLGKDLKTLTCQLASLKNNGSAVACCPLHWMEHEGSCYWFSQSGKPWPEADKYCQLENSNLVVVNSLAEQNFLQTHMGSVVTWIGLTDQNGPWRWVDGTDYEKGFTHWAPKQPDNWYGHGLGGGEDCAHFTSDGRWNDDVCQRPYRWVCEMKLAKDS
monomeric carbohydrate-recognition domain (CRD) of rat macrophage galactose lectin (MGL) (rat), sequence (P49301 165-306): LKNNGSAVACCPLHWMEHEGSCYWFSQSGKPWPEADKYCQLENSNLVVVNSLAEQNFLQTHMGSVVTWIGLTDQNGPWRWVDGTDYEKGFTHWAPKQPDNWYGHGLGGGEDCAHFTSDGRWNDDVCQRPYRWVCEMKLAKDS
monomeric carbohydrate-recognition domain (CRD) from DC-SIGN, sequence (Q9NNX6 250-404): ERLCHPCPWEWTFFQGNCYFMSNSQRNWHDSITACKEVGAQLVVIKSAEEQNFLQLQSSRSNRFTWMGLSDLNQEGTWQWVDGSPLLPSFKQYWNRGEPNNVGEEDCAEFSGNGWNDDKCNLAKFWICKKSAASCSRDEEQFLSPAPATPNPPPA

Substance | Ki [1] | Ki [2] | Ki [3] | Kd [4] | fold lower affinity than for intact SBA [5]
asialo-orosomucoid derived from human blood (from UniProt P02763 19-201) (natural protein) | 0.18 µM | 0.12 µM | – | – | –
Man9GlcNAc2 glycopeptide isolated from soybean agglutinin | – | – | 68 µM | 76 µM | –
monomeric carbohydrate-recognition domain (CRD) from DC-SIGN (from UniProt Q9NNX6 250-404) (domain or fragment) | – | – | – | – | 15 fold

Further lines, results first:

Ki [1] | Ki [2] | Ki [3] | Kd [4] | fold lower affinity than for intact SBA [5] | Substance
0.65 µM | 1.4 µM | – | – | – | asialo-orosomucoid OR-5 (five glycosylation sites, expressed in Chinese hamster ovary cells) (from UniProt P02763 19-201) (natural protein)
160 µM | 260 µM | – | – | – | desialylated tri-antennary glycopeptide isolated from fetuin
